This experiment deals with human butyrylcholinesterase (human (endogenous in plasma), UniProt P06276). In words: pull-down.
human butyrylcholinesterase, sequence (P06276 29-602): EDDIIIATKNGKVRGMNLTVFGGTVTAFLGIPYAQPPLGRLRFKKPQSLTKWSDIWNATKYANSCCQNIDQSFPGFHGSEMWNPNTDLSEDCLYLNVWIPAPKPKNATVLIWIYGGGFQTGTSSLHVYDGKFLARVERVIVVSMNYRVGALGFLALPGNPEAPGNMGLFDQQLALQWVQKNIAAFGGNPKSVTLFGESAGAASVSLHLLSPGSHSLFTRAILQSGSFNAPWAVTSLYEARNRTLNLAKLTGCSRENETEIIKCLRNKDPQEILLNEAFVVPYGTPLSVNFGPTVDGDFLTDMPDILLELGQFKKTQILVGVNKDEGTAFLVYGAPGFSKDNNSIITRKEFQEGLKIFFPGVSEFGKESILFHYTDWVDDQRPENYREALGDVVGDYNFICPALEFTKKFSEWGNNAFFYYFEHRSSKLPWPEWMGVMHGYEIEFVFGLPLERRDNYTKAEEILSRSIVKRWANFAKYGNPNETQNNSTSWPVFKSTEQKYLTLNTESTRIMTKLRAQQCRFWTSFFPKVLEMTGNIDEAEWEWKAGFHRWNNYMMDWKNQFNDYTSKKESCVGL

B1: mouse anti-human BChE monoclonal antibody 11D8 (antibody, V domains shown)
VH: QVQLQQSGAELARPGASVKLSCKASGYTFTSQWLQWVKQRPGQGLEWIGAIYPGDGDTRYTQKFKGKATLTADKSSSTAYMQLTNLAPEDSAVYYCARSSMDYWGQGTSVTVSS
VL: DILLTQSPAILSVSPGERVRLSCRASQSCGTSIYWYQQRTNGSPRLLIMYASEPFSGIPSRFSGSGSGTDFTLSINSVESEDIADYYCQQSNSWPWTFGGGTRLEIK
With B1, the binding result is recorded as “binds”.

B2: mouse anti-human BChE monoclonal antibody B2 12-1 (antibody, V domains shown)
VH: EVQLQQSGPELVKPGASVKISCKASGYTFTDYSMHWVKLSHGKSLEWIGYIYPYNDDTDYNQKFKTKATLTVDSSSSITYLELRSLTSEDSAVYYCARSDGYSYYFDYWGQGTTLTVSS
VL: DIVMTQSPATLSVTPGDRVSLSCRASQSISDYLHWYQQKSHESPRLLIKYASQSISGIPSRFSGGGSGSDFTLSINSVEPEDVGVYYCQNGHRFPLTFGAGTKLELK
Turning to B2, the binding result is “binds”.

Source of the values: PMC5097833 (Chemico-biological interactions, 2015).
